One block for each molecule: values may come before it.
Tests used:
[1] = molecular target: soluble form of human VLDL receptor (human) (UniProt P98155); assay: SPR
human fibrin (human) = human fibrin (human) (UniProt P02679); assay: ELISA
[2] = molecular target: recombinant fibrin (β15-66)2 fragment (human); assay: ELISA
[3] = molecular target: recombinant fibrinogen (Bβ1-66)2 fragment (human); assay: ELISA
[4] = molecular target: soluble form of human VLDL receptor (human, UniProt P98155 28-797); assay: ELISA

Kd [1]: 254 nM
Molecule: recombinant fibrinogen (Bβ1-66)2 fragment (domain or fragment)

Kd (human fibrin (human)): 7.2 nM
Kd [2]: 5.9 nM
Kd [3]: 7.7 nM
Molecule: soluble form of human VLDL receptor (from UniProt P98155 28-797)

binding result [4]: binds
B1: human receptor-associated protein (natural protein, UniProt P30533 35-357, looked up)
chain: YSREKNQPKPSPKRESGEEFRMEKLNQLWEKAQRLHLPPVRLAELHADLKIQERDELAWKKLKLDGLDEDGEKEARLIRNLNVILAKYGLDGKKDARQVTSNSLSGTQEDGLDDPRLEKLWHKAKTSGKFSGEELDKLWREFLHHKEKVHEYNVLLETLSRTEEIHENVISPSDLSDIKGSVLHSRHTELKEKLRSINQGLDRLRRVSHQGYSTEAEFEEPRVIDLWDLAQSANLTDKELEAFREELKHFEAKIEKHNHYQKQLEIAHEKLRHAESVGDGERVSRSREKHALLEGRTKELGYTVKKHLQDLSGRISRARHNEL

Source: publication PMC5811407 (Thrombosis research, 2017)
